Data: US20230295597
Residue numbers refer to the chain shown, from its start.

Tests used:
[1] = biological target: T1, trADAMTS-13^R312K (truncated ADAMTS-13 mutant, Arg312 to Lys)
T1 chain: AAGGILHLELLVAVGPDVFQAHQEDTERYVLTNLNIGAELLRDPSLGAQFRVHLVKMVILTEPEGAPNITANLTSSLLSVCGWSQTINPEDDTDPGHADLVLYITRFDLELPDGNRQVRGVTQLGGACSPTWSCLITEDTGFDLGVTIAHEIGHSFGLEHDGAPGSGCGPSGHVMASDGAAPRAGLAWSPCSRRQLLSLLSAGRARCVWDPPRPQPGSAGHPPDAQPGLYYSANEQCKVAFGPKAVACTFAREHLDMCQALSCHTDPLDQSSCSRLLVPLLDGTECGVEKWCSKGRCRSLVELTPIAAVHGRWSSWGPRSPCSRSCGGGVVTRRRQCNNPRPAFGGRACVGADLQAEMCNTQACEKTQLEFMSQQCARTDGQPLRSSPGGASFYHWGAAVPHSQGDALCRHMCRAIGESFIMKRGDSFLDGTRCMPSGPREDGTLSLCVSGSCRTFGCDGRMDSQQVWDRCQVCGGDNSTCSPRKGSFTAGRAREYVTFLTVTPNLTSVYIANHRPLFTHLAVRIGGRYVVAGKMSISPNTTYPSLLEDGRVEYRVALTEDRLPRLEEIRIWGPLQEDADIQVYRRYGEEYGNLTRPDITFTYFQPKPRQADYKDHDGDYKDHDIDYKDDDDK

[2] = biological target: T2, trADAMTS-13^R312A (truncated ADAMTS-13 mutant, Arg312 to Ala)
T2 chain: T1 chain with K238A

[3] = biological target: T3, trADAMTS-13^V313A (truncated ADAMTS-13 mutant, Val313 to Ala)
T3 chain: T1 chain with K238R, V239A

[4] = biological target: T4, truncated recombinant human ADAMTS-13 variant (MDTCS), trADAMTS-13 WT
T4 chain: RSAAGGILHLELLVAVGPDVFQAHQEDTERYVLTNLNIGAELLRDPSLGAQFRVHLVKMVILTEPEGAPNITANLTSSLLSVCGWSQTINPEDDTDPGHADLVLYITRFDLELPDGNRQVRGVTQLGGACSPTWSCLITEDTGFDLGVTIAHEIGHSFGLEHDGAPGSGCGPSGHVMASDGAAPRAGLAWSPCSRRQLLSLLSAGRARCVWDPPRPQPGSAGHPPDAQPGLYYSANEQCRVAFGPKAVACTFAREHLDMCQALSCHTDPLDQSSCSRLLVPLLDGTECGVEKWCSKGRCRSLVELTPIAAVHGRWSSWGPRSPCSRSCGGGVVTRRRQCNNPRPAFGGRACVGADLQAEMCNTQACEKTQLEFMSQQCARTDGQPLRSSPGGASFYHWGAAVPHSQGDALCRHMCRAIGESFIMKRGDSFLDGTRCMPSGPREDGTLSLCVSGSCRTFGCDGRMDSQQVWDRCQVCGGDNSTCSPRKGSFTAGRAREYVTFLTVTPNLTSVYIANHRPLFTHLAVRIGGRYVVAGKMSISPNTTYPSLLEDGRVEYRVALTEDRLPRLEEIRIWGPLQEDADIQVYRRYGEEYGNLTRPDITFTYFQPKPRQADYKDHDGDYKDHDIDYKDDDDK

B1: tissue plasminogen activator (tPA) (protein)
chain: SYQVICRDEKTQMIYQQHQSWLRPVLRSNRVEYCWCNSGRAQCHSVPVKSCSEPRCFNGGTCQQALYFSDFVCQCPEGFAGKCCEIGNSDCYFGNGSAYRGTHSLTESGASCLPWNSMILIGKVYTAQNPSAQALGLGKHNYCRNPDGDAKPWCHVLKNRRLTWEYCDVPSCSTCGLRQYSQPQFRIKGGLFADIASHPWQAAIFAKHRRSPGERFLCGGILISSCWILSAAHCFQERFPPHHLTVILGRTYRVVPGEEEQKFEVEKYIVHKEFDDDTYDNDIALLQLKSDSSRCAQESSVVRTVCLPPADLQLPDWTECELSGYGKHEALSPFYSERLKEAHVRLYPSSRCTSQHLLNRTVTDNMLCAGDTRSGGPQANLHDACQGDSGGPLVCLNDGRMTLVGIISWGLGCGQKDVPGVYTKVTNYLDWIRDNMRP
For B1, the “cleavage by tPA (Western blot) and residual proteolytic activity on vWF over time” value [1] was “trADAMTS-13^R312K was resistant to cleavage by tPA under conditions where trADAMTS-13 was proteolyzed completely (FIG. 7A) and lost its catalytic activity (FIG. 7B)”, the “residual proteolytic activity on vWF after 6 hours with or without tPA” value [1] was “trADAMTS-13^R312K and trADAMTS-13^V313D variants were resistant to inactivation by tPA” and the “residual proteolytic activity on vWF after 6 hours with or without tPA” value [2] was “tPA inhibited the proteolytic activity of trADAMTS-13^R312A and trADAMTS-13^V313A variants on vWF (FIG. 8)”. For the same protein, the “residual proteolytic activity on vWF after 6 hours with or without tPA” value [3] was “tPA inhibited the proteolytic activity of trADAMTS-13^R312A and trADAMTS-13^V313A variants on vWF (FIG. 8)”, the “ADAMTS-13 activity with or without preincubation with tPA (technozym kit)” value [4] was “the activity of both trADAMTS-13 and ADAMTS-13 WT was reduced in the presence of tPA (FIG. 4B)” and the “activity of trADAMTS-13 WT after 4 hr in soluble fibrin (2 uM) or PBS, without or with tPA (100 nM)” value [4] was “The addition of soluble fibrin reversed the tPA-mediated reduction in ADAMTS-13 activity (FIG. 14A)”. The “cleavage by tPA (Western blot) and residual proteolytic activity on vWF over time” value [4] was “trADAMTS-13 was proteolyzed completely (FIG. 7A) and lost its catalytic activity (FIG. 7B)” and the “cleavage of trADAMTS-13 (500 nM) by tPA (100 nM), Western blot” value [4] was “in the presence of tPA, it is cleaved (FIG. 4C)”.
